The values below come from publication PMC3961685, “Origin of the Proton-transfer Step in the Cofactor-free (1H)-3-Hydroxy-4-oxoquinaldine 2,4-Dioxygenase” (The Journal of Biological Chemistry, 2014).

For data set [1], the target named is T1, HOD (WT HOD = HOD C69S); (1H)-3-hydroxy-4-oxoquinaldine 2,4-dioxygenase (Paenarthrobacter nitroguajacolicus, UniProt O31266, C69S).
T1 construct: full-length HOD C69S in pQE30 (His-tag vector, Ni column); ~31 kDa monomer
Nature of the data set: anaerobic stopped-flow, QND deprotonation at […] nm, kobs vs [QND] fit. The class given is binding.

Data set [2] concerns the target T2, HOD (WT HOD = HOD C69S); (1H)-3-hydroxy-4-oxoquinaldine 2,4-dioxygenase (Paenarthrobacter nitroguajacolicus, UniProt O31266, C69S/H251A).
T2 construct: full-length HOD C69S in pQE30 (His-tag vector, Ni column); ~31 kDa monomer
Briefly: X-ray crystal structure, […] Å, crystal soaked with QND. The class given is binding. To be noted: 2 mM QND soak about 2 h, pH 7.0; active site.

In a further data set the test system is Cc1[nH]c2ccccc2c(=O)c1O. Briefly: purified protein. The class given is biochemical, Paenarthrobacter nitroguajacolicus. To be noted: pH 6.5, air-saturated 0.1 M MTE, 5 mM NaCl, 2 mM EDTA, 20 °C, O2 co-substrate, also measured at pH 10.5.

T2 sequence (O31266 whole entry C69S/H251A): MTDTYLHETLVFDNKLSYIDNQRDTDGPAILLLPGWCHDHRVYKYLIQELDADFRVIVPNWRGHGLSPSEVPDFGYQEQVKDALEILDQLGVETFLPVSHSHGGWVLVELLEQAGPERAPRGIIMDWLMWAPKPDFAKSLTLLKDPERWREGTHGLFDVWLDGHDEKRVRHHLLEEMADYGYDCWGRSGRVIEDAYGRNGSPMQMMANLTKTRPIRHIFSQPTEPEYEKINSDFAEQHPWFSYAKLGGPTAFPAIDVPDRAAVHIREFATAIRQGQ
T1 sequence (O31266 whole entry C69S): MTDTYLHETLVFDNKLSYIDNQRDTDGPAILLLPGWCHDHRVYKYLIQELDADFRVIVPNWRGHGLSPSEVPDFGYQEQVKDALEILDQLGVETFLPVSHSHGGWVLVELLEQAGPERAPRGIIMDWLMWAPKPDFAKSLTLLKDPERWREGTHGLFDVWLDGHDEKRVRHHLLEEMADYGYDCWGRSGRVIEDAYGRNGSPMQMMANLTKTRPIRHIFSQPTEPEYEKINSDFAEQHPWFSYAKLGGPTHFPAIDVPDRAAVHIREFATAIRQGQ

For `Cc1[nH]c2ccccc2c(=O)c1O` [QND, (1H)-3-hydroxy-4-oxoquinaldine], the Kd in data set [1] stood at 214 ± 9 µM. In addition, in data set [2], the “X-ray crystal structure, 1.95 Å, crystal soaked with QND” value is “we solved the x-ray structure of this variant in complex with the QND substrate”.

“HOD (WT HOD = HOD C69S); (1H)-3-hydroxy-4-oxoquinaldine 2,4-dioxygenase (Paenarthrobacter nitroguajacolicus; C69S)”: in the data set with Cc1[nH]c2ccccc2c(=O)c1O, the Michaelis-Menten constant (Km) is listed as 3.2 ± 0.1 µM and the catalytic constant (kcat) amounted to 16.3 ± 0.1 s⁻¹.

As for “HOD (WT HOD = HOD C69S); (1H)-3-hydroxy-4-oxoquinaldine 2,4-dioxygenase (Paenarthrobacter nitroguajacolicus; C69S/H251A)”, in the data set on Cc1[nH]c2ccccc2c(=O)c1O, the Michaelis-Menten constant (Km) is 58.9 ± 14.6 µM and the kcat was determined as 0.0006 ± 0.0001 s⁻¹.

Regarding “HOD (WT HOD = HOD C69S); (1H)-3-hydroxy-4-oxoquinaldine 2,4-dioxygenase (Paenarthrobacter nitroguajacolicus; C69S/D126A)”, in the data set on Cc1[nH]c2ccccc2c(=O)c1O, the Km stood at 20.9 ± 0.6 µM and the kcat amounted to 0.19 ± 0.01 s⁻¹.
